Five molecules from article PMC7418854 (Journal for Immunotherapy of Cancer, 2020) can be followed below.

Changes are numbered by the printed parent chain. Names and notes keep the numbering of the source.

The target in test [1] is T1, recombinant LILRB1 (Homo sapiens, UniProt Q8NHL6). The experiment in a line: BLI + ELISA. (In general: ELISA stands for enzyme-linked immunosorbent assay.)
Test [2] addresses T1, recombinant LILRB1. Briefly: ELISA.
The target in test [3] is T1, recombinant LILRB1. Briefly: BLI. A general note: BLI is a label-free optical method that tracks binding on a fibre tip over time.

T1 sequence (Q8NHL6 24-461): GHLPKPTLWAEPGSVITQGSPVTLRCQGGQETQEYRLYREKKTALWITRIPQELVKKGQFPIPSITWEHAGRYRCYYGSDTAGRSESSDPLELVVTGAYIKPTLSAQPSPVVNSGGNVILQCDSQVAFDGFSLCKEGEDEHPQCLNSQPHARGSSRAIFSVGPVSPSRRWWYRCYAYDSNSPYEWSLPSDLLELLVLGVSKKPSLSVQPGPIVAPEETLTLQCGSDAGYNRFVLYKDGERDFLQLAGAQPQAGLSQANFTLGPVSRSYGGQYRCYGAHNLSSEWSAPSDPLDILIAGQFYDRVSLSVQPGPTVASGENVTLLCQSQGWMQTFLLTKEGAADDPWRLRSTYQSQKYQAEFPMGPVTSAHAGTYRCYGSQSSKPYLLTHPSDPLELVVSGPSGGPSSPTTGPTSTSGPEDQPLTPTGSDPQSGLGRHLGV

B1: humanized anti-LILRB1 antibody Hu B1-176-N297A (antibody, V domains shown)
VH: EVQLVESGGGLVQPGGSLRLSCAASGFSFSSSYCMCWVRQAPGKGLELVSCIYTDSSGATYYASWAKGRFTISRHNSKNTLYLQMNSLRAEDTAVYYCARGWDYEDPGYTDTTYFSLWGRGTLVTVSS
VL: DIQLTQSPSFLSASVGDRVTITCQASQTIYTNLAWYQQKPGKAPKLLIYAASTLASGVPSRFSGSGSGTEFTLTISSLQPEDFATYYCQSYYGSSTTGNGFGGGTKVEIK
For B1, the binding result with recombinant LILRB1 [1] is listed as “binds”.

B2: humanized B1-176 with heavy chain Hu-176 VH-1 and light chain Hu-176 VL (antibody, V domains shown)
VH: B1 VH with L48W
VL: B1 VL
Consider B2, for which the binding result in the test with recombinant LILRB1 [2] is “binds”.

B3: humanized B1-176 with heavy chain Hu-176 VH-2 (W48L), as tested in Figure 3B (antibody, V domains shown)
VH: B1 VH
VL: B1 VL
Regarding B3, the binding result with recombinant LILRB1 [2] is given as “binds”.

B4: humanized anti-LILRB1 antibody Hu B1-176-LALAPG (antibody, V domains shown)
VH: B1 VH
VL: B1 VL
Take B4: the binding result with recombinant LILRB1 [1] was “binds”.

B5: rabbit anti-LILRB1 monoclonal antibody B1-176 (antibody, V domains shown)
VH: QSLEESEGGLVKPGGTLTLTCTASGFSFSSSYCMCWVRQAPGKGLELIACIYTDSSGATYYASWAKGRFTISKSSSTTITLQMTSLTAADTATYFCARGWDYEDPGYTDTTYFSLWGPGTLVTVSS
VL: ELDLTQTPSSVEAAVGGTVTIKCQASQTIYTNLAWYQQKPGQPPNLLIYAASTLASGVSSRFKGSGSGTEFTLTISDLECADAATYYCQSYYGSSTTGNGFGGGTEVEIK
Turning to B5, the Kd (commonly the equilibrium constant for the complex coming apart) in the test with recombinant LILRB1 [3] is about 0.01 nM.
